The values that follow come from publication doi:10.1101/2024.04.02.587704.

This experiment concerns the target ReoM-His from the ΔprkA ΔmurZ strain LMPR29 (unphosphorylated at Thr-7) (L. monocytogenes) (UniProt B8DE07). Briefly: cross-linking + pull-down.
Sequence of UniProt B8DE07 (B8DE07 whole entry, stated change not applied): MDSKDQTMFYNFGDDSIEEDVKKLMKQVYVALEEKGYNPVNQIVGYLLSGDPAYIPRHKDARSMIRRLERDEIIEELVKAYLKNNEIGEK

B1: MurA (L. monocytogenes UDP-N-acetylglucosamine 1-carboxyvinyltransferase) (enzyme)
chain: MEKIIVRGGKQLNGSVKMEGAKNAVLPVIAATLLASKGTSVLKNVPNLSDVFTINEVLKYLNADVSFVNDEVTVDATGEITSDAPFEYVRKMRASIVVMGPLLARTGSARVALPGGCAIGSRPVDLHLKGFEAMGAVVKIENGYIEATAEKLVGAKVYLDFPSVGATQNIMMAATLAEGTTVIENVAREPEIVDLANFLNQMGARVIGAGTEVIRIEGVKELTATEHSIIPDRIEAGTFMIAAAITGGNVLIEDAVPEHISSLIAKLEEMGVQIIEEENGIRVIGPDKLKAVDVKTMPHPGFPTDMQSQMMVIQMLSEGTSIMTETVFENRFMHVEEMRRMNADMKIEGHSVIISGPAKLQGAEVAATDLRAAAALILAGLVADGYTQVTELKYLDRGYNNFHGKLQALGADVERVDDSKVDVTNLASLF
For B1, the fold MurA copurified, against the prkA+ strain is 3 fold.
